Experimental data reported in patent US20240091164.

Target: fluorescein isothiocyanate-tagged BSA (FITC-BSA) (UniProt P02769)
Sequence (P02769 25-607): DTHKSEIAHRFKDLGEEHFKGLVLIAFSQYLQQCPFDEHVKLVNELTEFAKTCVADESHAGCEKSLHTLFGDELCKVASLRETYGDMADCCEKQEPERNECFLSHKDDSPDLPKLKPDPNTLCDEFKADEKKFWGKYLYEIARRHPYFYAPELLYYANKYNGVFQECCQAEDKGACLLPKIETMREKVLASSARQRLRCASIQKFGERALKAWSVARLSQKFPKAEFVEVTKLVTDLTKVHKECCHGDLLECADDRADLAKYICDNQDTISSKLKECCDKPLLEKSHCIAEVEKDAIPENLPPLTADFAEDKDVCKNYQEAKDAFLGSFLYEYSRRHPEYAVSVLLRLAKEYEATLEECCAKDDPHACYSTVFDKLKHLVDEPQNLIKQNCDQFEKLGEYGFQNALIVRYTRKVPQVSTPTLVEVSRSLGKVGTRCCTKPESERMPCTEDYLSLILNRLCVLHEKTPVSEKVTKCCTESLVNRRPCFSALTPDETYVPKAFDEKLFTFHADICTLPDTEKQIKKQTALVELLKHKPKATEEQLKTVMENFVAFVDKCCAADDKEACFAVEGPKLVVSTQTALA

In the case of trypsin, the “increase in fluorescence from proteolytic cleavage of quenched FITC-BSA” value is reported as “This assay confirmed the ability of trypsin@NP to cleave BSA”.
